Here are results for one substance from patent publication US20090304768A1, “Gastro-Retentive System for the Delivery of Macromolecules” (INTEC PHARMA LTD, priority 2006, published 2009).

Data set [1] can be described thus: Stability assay of PTH 1-34 in various buffer solutions over 24 hr at 37° C. The data set is classed as physicochemical. On the procedure:
The stability of PTH 1-34 in various buffer solutions over 24 hr at 37° C. was evaluated to allow selection of a suitable buffer for in vitro release experiments. The lyophilized peptide (0.1 mg) was dissolved in each buffer solution that was tested. The concentration of PTH 1-34 in samples withdrawn from the solution at 0, 4, 8, and 24 hours were analyzed by HPLC (Gemini (Phenomenex) 5 μ C18, 250×4.6; mobile phase˜0.1% Trifluoroacetic acid/Acetonotrile:0.1% Trifluoroacetic acid/Water, gradient elution, 1 mL/min; 100 μL injection, UV PDA detection at 214).

Data set [2] is described as follows: Stability of the peptide in 1% acid solution, incubation for 24 hr at 37° C. Format: physicochemical. To be noted: 1% acetic acid. The method, then:
PTH 1-34 (molecular weight of 4117.8, UCB Bioproducts, USA) was received as a lyophilized powder. The peptide was made up in 1% acetic acid. The stability of the peptide in 1% acid solution was confirmed by incubating it for 24 hr at 37° C.

In the case of “PTH 1-34: Parathyroid hormone fragment 1-34, molecular weight 4117.8, UCB Bioproducts, lyophilized powder”, the “stability at pH=2.2 over 24 hr” value in data set [1] (KCl/Cl buffer pH=2.2, over 24 hr) is reported as “stable”. Besides, the “stability at pH=1.2” value in data set [1] (buffer pH=1.2, 37° C.) is on record as “decreased stability”. Moreover, in data set [1] (buffer pH>7, 37° C.), the “stability at pH>7” value is on record as “decreased stability”. The “stability in various buffer solutions” value in data set [1] (various buffer solutions, 24 hr at 37° C.) is “stable over a wide range of pH values”. The “stability of the peptide in 1% acid solution” value in data set [2] is on record as “confirmed”.
